# Assay results taken from paper PMC5300761.
# Values joined by “and” are separate entries in the source; they are usually repeats but may differ in a detail not shown here. Identical values can stand only once.
# Key:
# CRD-BP WT (mouse) [1] = molecular target: CRD-BP WT (mouse) (UniProt O88477); assay: EMSA; settings: EMSA as in refs 21,22 (buffer not given; competitor preincubation 35 C), FP: binding buffer stock 10 mM Tris-HCl pH 7.4, 2.5 mM EDTA, 5% glycerol, 0.002% …
# CRD-BP WT (mouse) [2] = molecular target: CRD-BP WT (mouse) (UniProt O88477); assay: competition; settings: EMSA as in refs 21,22 (buffer not given; competitor preincubation 35 C); FP: binding buffer stock 10 mM Tris-HCl pH 7.4, 2.5 mM EDTA, 5% glycerol, 0.002% …
# CRD-BP KH3 G422D (mouse) = CRD-BP KH3 G422D (mouse) (UniProt O88477); assay: EMSA; settings: EMSA as in refs 21,22 (buffer not given; competitor preincubation 35 C); FP: binding buffer stock 10 mM Tris-HCl pH 7.4, 2.5 mM EDTA, 5% glycerol, 0.002% …
# [3] = molecular target: CRD-BP D526E D526E (mouse) (UniProt O88477); assay: EMSA; settings: EMSA as in refs 21,22 (buffer not given; competitor preincubation 35 C); FP: binding buffer stock 10 mM Tris-HCl pH 7.4, 2.5 mM EDTA, 5% glycerol, 0.002% …
# CRD-BP Y5A Y5A (mouse) = CRD-BP Y5A Y5A (mouse) (UniProt O88477); assay: EMSA; settings: EMSA as in refs 21,22 (buffer not given; competitor preincubation 35 C); FP: binding buffer stock 10 mM Tris-HCl pH 7.4, 2.5 mM EDTA, 5% glycerol, 0.002% …
# CRD-BP KH2 G293D (mouse) = CRD-BP KH2 G293D (mouse) (UniProt O88477); assay: EMSA; settings: EMSA as in refs 21,22 (buffer not given; competitor preincubation 35 C); FP: binding buffer stock 10 mM Tris-HCl pH 7.4, 2.5 mM EDTA, 5% glycerol, 0.002% …
# CRD-BP KH4 G504D (mouse) = CRD-BP KH4 G504D (mouse) (UniProt O88477); assay: EMSA; settings: EMSA as in refs 21,22 (buffer not given; competitor preincubation 35 C); FP: binding buffer stock 10 mM Tris-HCl pH 7.4, 2.5 mM EDTA, 5% glycerol, 0.002% …
# CRD-BP KH1 G212D (mouse) = CRD-BP KH1 G212D (mouse) (UniProt O88477); assay: EMSA; settings: EMSA as in refs 21,22 (buffer not given; competitor preincubation 35 C); FP: binding buffer stock 10 mM Tris-HCl pH 7.4, 2.5 mM EDTA, 5% glycerol, 0.002% …
# [4] = molecular target: CRD-BP KH3-4 G422D;G504D (mouse) (UniProt O88477); assay: EMSA; settings: EMSA as in refs 21,22 (buffer not given; competitor preincubation 35 C); FP: binding buffer stock 10 mM Tris-HCl pH 7.4, 2.5 mM EDTA, 5% glycerol, 0.002% …
# CRD-BP KH3-4 (mouse) = assay: EMSA; settings: EMSA as in refs 21,22 (buffer not given; competitor preincubation 35 C); FP: binding buffer stock 10 mM Tris-HCl pH 7.4, 2.5 mM EDTA, 5% glycerol, 0.002% …
# CRD-BP D526E (mouse) = assay: EMSA; settings: EMSA as in refs 21,22 (buffer not given; competitor preincubation 35 C); FP: binding buffer stock 10 mM Tris-HCl pH 7.4, 2.5 mM EDTA, 5% glycerol, 0.002% …
# CRD-BP Y5A (mouse) = assay: EMSA; settings: EMSA as in refs 21,22 (buffer not given; competitor preincubation 35 C); FP: binding buffer stock 10 mM Tris-HCl pH 7.4, 2.5 mM EDTA, 5% glycerol, 0.002% …
# CRD-BP WT (mouse), sequence (O88477 whole entry): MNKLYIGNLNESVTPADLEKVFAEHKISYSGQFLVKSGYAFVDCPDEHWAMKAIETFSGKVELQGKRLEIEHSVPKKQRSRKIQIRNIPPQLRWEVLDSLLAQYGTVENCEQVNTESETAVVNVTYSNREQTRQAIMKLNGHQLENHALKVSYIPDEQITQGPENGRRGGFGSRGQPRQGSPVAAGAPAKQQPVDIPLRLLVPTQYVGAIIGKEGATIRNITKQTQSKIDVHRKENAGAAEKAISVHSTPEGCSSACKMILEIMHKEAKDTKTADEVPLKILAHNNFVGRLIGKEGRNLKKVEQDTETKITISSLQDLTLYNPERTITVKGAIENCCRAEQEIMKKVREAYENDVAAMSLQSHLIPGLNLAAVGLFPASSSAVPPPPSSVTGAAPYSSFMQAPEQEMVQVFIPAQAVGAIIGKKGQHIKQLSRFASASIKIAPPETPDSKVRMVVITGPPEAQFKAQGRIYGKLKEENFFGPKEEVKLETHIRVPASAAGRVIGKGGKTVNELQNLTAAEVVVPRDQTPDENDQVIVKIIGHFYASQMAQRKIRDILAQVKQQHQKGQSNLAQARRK
# CRD-BP KH2 G293D (mouse), sequence (O88477 whole entry G293D): as the sequence (O88477 whole entry) above, with G293D counted along it
# CRD-BP KH4 G504D (mouse), sequence (O88477 whole entry G504D): as the sequence (O88477 whole entry) above, with G504D counted along it
# CRD-BP KH1 G212D (mouse), sequence (O88477 whole entry G212D): as the sequence (O88477 whole entry) above, with G212D counted along it
# CRD-BP Y5A Y5A (mouse), sequence (O88477 other isoform, or with tags, fused parts or gaps): as the sequence (O88477 whole entry) above, with Y5A counted along it
# CRD-BP KH3 G422D (mouse), sequence (O88477 whole entry G422D): as the sequence (O88477 whole entry) above, with G422D counted along it
# CRD-BP D526E D526E (mouse), sequence (O88477 whole entry D526E): as the sequence (O88477 whole entry) above, with D526E counted along it
# CRD-BP KH3-4 G422D;G504D (mouse), sequence (O88477 whole entry G422D/G504D): as the sequence (O88477 whole entry) above, with G422D, G504D counted along it
substance,measurement,setting,value
GGACACUUGUUAGCGAAUCCUCCCUGCACUGCAUUCGCACAAACUGCUUCCUUUCUUGAUUCGUAGAUUUAAUAACUUACCUGAAGGGGUUUUCUUGAUAAUUUUCCUUUAAUAUGAAAUUUUUUUUCAUGCUUUAUCAAUAGCCCAGGAUAUAUUUUAUUUUUAGAAUUUUGUGAAACAGACUUGUAUAUUCUAUUUUACAACUACAAAUGCCUCCAAAGUA [MITF RNA 1330-1550],binding,CRD-BP WT (mouse) [1],binds more weakly
GGAUUGUACAAAUAAGUGUGCAGUAUCUGUGAACUGAAUUCACCACAGACUUUAGCUUUCUGAGCAAGAGGA [MITF RNA 1550-1619],binding,CRD-BP WT (mouse) [1],no binding
GGAUUGUACAAAUAAGUGUGCAGUAUCUGUGAACUGAAUUCACCACAGACUUUAGCUUUCUGAGCAAGAGGAUUUUGCGUCAGAGAAAUGUCUGUCCAUUUUUAUUCAGGGGAAACUUGAUU [MITF RNA 1550-1669],binding,CRD-BP WT (mouse) [1],binds
GGAUUGUACAAAUAAGUGUGCAGUAUCUGUGAACUGAAUUCACCACAGACUUUAGCUUUCUGAGCAAGAGGAUUUUGCGUCAGAGAAAUGUCUGUCCAUUUUUAUUCAGGGGAAACUUGAUUUGAGAUUUUUAUGCCUGUGACUUCCUUGGAAAUCAAA [MITF RNA 1550-1709],binding,CRD-BP WT (mouse) [1],binds
GGAUUGUACAAAUAAGUGUGCAGUAUCUGUGAACUGAAUUCACCACAGACUUUAGCUUUCUGAGCAAGAGGAUUUUGCGUCAGAGAAAUGUCUGUCCAUUUUUAUUCAGGGGAAACUUGAUUUGAGAUUUUUAUGCCUGUGACUUCCUUGGAAAUCAAAUGUAAAGUUUAAUUGAAAGAAUGUAAAGCAACCA [MITF RNA 1550-1740],binding,CRD-BP WT (mouse) [2],binds
same,binding,CRD-BP KH3 G422D (mouse),no binding
same,Kd,[3],91 nM
same,Kd,CRD-BP Y5A Y5A (mouse),85 nM
same,binding,CRD-BP KH2 G293D (mouse),no binding
same,binding,CRD-BP KH4 G504D (mouse),no binding
same,binding,CRD-BP KH1 G212D (mouse),binds
same,Kd,[4],155 nM
same,Kd,CRD-BP WT (mouse) [1],323 nM and 132 nM
same,binding,CRD-BP WT (mouse) [1],binds
GGCUGAAUUCACCACAGACUUUAGCUUUCUGAGCAAGAGGAUUUUGCGUCAGAGAAAUGUCUGUCCAUUUUUAUUCAGGGGAAACUUGAUUUGAGAUUUUUAUGCCUGUGACUUCCUUGGAAAUCAAAUGUAAAGUUUAAUUGAAAGAAUGUAAAGCAACCA [MITF RNA 1581-1740],binding,CRD-BP WT (mouse) [1],binds
GGUUUGCGUCAGAGAAAUGUCUGUCCAUUUUUAUUCAGGGGAAACUUGAUUUGAGAUUUUUAUGCCUGUGACUUCCUUGGAAAUCAAAUGUAAAGUUUAAUUGAAAGAAUGUAAAGCAACCA [MITF RNA 1621-1740],binding,CRD-BP WT (mouse) [1],binds
MITF RNA 1550-1740,Kd,CRD-BP KH3-4 (mouse),155 nM
same,Kd,CRD-BP D526E (mouse),91 nM
same,Kd,"CRD-BP WT (mouse) [1]; 40 nM RNA, compared with deletion RNA",323 nM
same,Kd,CRD-BP WT (mouse) [1],132 nM
same,Kd,CRD-BP Y5A (mouse),85 nM
MITF RNA 1550-1740 (del1621-1669),Kd,CRD-BP WT (mouse) [1]; 40 nM RNA,970 nM
